Source: publication PMC8121907

Tests used:
[1] = target: Vip3Bc1 (wild type, full length, unprocessed) (Bacillus thuringiensis); test: cryo-EM structure; single particle cryoEM of undigested Vip3Bc1, C2 symmetry applied, global resolution 3.9 Å
[2] = target: Vip3Bc1 (wild type, full length, unprocessed) (Bacillus thuringiensis); test: SEC; Superose 6 increase 10/300 GL, 25 mM TrisHCl pH 7.5, 150 mM NaCl; undigested Vip3Bc1 loaded at 1 mg/mL
[3] = target: activated Vip3Bc1 (Vip3Bc1^act), trypsin-digested Vip3Bc1 (Bacillus thuringiensis); test: cryo-EM structure; single particle cryoEM of trypsin-digested Vip3Bc1^act, tilted collection, C4 symmetry applied, global resolution 4.8 Å; model built by homology

| Substance | stoichiometry N [1] | stoichiometry N [2] | stoichiometry N [3] |
| --- | --- | --- | --- |
| Vip3Bc1 (wild type, full length, unprocessed) (natural protein) | 4 | 4 |  |
| activated Vip3Bc1 (Vip3Bc1^act), trypsin-digested Vip3Bc1 (complex) |  |  | 4 |
